What all share (experiment): SPR, Fab over captured MICA*008.mIgG2a Ala variant; KD relative to wild type
(SPR reads the build-up and loss of mass on a sensor chip optically.)

One experiment addresses T1, S247A.
T1 construct: % monomer 94.87; also called MICA*008.mIgG2a S247A
T1 chain: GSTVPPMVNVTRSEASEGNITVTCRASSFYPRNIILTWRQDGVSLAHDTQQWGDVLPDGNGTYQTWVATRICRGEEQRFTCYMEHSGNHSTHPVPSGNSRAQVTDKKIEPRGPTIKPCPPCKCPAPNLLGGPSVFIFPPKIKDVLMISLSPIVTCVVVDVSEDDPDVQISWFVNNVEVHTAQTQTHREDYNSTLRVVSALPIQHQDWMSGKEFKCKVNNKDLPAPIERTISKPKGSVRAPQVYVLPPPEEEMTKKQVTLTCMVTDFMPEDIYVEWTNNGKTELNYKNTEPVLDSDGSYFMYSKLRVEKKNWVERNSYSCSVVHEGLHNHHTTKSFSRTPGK

Another experiment deals with T2, T250A.
T2 construct: % monomer 91.61; also called MICA*008.mIgG2a T250A
T2 chain: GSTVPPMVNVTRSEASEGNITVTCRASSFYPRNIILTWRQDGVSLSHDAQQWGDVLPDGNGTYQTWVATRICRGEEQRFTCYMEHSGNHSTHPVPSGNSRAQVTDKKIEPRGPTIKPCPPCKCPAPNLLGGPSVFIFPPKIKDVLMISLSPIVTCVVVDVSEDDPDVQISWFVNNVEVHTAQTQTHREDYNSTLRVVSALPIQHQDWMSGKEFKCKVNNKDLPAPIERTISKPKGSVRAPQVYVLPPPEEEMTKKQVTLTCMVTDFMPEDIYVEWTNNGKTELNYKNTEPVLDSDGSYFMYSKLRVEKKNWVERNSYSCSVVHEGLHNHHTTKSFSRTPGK

A further experiment deals with T3, T238A.
T3 construct: % monomer 96; also called MICA*008.mIgG2a T238A
T3 chain: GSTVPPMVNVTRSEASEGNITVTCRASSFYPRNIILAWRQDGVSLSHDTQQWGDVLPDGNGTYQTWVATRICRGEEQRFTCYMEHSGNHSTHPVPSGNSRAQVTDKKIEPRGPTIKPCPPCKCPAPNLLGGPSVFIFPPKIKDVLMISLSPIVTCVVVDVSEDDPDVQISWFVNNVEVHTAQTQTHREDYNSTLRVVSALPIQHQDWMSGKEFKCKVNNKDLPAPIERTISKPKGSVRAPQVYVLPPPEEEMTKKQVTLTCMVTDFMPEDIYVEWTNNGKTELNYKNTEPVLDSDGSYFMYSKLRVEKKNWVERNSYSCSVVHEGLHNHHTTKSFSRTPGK

Another experiment has as its target T4, S291A.
T4 construct: % monomer 83.21; also called MICA*008.mIgG2a S291A
T4 chain: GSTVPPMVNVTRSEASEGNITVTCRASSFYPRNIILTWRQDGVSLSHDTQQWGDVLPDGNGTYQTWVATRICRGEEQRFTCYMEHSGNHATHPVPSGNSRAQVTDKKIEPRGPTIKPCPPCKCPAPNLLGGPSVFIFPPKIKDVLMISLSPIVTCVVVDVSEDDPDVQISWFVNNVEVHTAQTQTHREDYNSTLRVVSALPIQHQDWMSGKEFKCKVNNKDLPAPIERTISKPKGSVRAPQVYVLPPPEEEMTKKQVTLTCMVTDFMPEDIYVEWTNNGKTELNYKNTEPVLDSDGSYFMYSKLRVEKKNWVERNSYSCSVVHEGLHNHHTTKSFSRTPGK

A further experiment deals with T5, P296A.
T5 construct: % monomer 92.3; also called MICA*008.mIgG2a P296A
T5 chain: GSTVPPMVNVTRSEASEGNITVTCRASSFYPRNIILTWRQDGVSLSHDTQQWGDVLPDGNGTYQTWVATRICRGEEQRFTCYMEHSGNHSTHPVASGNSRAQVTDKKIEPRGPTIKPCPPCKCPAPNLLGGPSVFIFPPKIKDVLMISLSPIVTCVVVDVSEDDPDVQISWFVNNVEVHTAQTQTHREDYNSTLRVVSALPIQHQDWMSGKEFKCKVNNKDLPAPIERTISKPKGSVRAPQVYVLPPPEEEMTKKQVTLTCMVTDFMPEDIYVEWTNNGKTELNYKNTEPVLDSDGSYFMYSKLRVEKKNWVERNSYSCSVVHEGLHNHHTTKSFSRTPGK

The next experiment addresses T6, D249A.
T6 construct: % monomer 86.64; also called MICA*008.mIgG2a D249A
T6 chain: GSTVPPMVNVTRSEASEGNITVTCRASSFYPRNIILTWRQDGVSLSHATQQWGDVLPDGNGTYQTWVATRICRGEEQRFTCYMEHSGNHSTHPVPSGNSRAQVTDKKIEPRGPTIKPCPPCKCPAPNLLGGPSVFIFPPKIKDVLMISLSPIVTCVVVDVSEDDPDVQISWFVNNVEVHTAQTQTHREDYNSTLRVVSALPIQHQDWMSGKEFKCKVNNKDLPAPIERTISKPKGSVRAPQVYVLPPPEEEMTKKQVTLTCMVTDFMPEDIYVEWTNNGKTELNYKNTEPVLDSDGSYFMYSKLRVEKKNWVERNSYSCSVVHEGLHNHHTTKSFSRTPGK

A further experiment has as its target T7, H290A.
T7 construct: % monomer 90.37; also called MICA*008.mIgG2a H290A
T7 chain: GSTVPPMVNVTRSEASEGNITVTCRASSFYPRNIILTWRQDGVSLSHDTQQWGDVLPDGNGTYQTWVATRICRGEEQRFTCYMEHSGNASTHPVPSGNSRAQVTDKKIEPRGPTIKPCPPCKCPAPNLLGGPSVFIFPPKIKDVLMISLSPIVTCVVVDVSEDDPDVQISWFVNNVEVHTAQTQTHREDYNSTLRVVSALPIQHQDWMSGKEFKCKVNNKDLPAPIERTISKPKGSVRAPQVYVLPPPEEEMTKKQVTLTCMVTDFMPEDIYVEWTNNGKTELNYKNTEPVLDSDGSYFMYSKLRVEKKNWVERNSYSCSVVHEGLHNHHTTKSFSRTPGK

B1: 1D5 Fab (Fab, V domains shown)
VH: EIQLQQSGPELVKPGASVKVSCKASGYAFTSQNIYWVKQSHGKSLEWIGYIEPYNVVPMYNPKFKGKATLTVDKSSSSAYIHLNSLTSEDSAIYYCARSGSSNFDYWGQGTTLTVSS
VL: EIILTQSPTTMAASPGEKITITCSASSSISSHYLHWYQQKSGFSPKLLIYRTSNLASGVPARFSGSGSGTSYSLTIGTMEAEDVATYYCQQGSSLPLTFGAGTKVEIK
notes: Expressed in E. coli as chimera of murine variable and human constant domains; not shown: human IgG1 CH1 constant domain; human kappa CL constant domain
Turning to B1, the fold-decrease in affinity in the experiment with S247A was found to be 0.2; with T250A, 8.8; in the experiment with T238A it was 0.4; with S291A, 1.1; with P296A, 1.9.

B2: 6F8.7 Fab (Fab, V domains shown)
VH: DVQLQGSGPGLVKPSQSLSLTCSVTGYSITNDYYWNWIRQFPGNKLEWMGFISFGGSNNYNPSLKNRISITRDTSKNQFFLKLSSVTTEDTATYYCARYDGRGAWFAYWAQGTLVTVSA
VL: DIQMTQSPASLSASVGETVTITCRASGNIHNYLAWYQQKQGKSPQLLVYDAITLADGVPSRFSGSGSGTQYSLKINSLQPEDFGNYYCQHFWSFPLTFGAGTKVEIK
Consider B2, for which the fold-decrease in affinity in the experiment with S247A was determined as 0.9; with T250A, 0.5; with T238A it was 0.1; with S291A it was 2.7; with P296A it was 1; with D249A, 0.8. In addition, in the experiment with H290A, the fold-decrease in affinity was found to be 8.4.

B3: 7D4.6 Fab (Fab, V domains shown)
VH: DVQLQESGPGLVKPSQSLSLTCTVTGYSITSDYAWNWIRQFPRNKLEWMGYINYSGTTNYNPSLKSRISITRDTSKNQFFLQLISVTTEDTATYYCSYYRYDGAWFPYWGQGTLVTVSA
VL: DIQMTQSPASLSASVGETVTITCRASGNIHNYLAWYQQKQGKSPQLLVYNAIMLADGVPSRFSASGSGTQYSLKINSLQPEDFGSYYCQHFWSFPLTFGAGTKVEIK
In the case of B3, the fold-decrease in affinity stood at 0.8 with S247A; 0.6 in the experiment with T250A; 0.1 with T238A; 2.7 with S291A; 0.7 with P296A; 0.7 with D249A. In addition, in the experiment with H290A, the fold-decrease in affinity was 8.8.

B4: 2E5.2.3 Fab (Fab, V domains shown)
VH: QGQMQQSGAELVKPGASVKLSCKTSGFTFSDNYISWLKQKPGQSLEWIAWIYAGTGGTSYNQKFTAKAQLTVDTSSSTAYMQFSSLTTEDSAIYYCARHDYYGTSGAWFAYWGQGTLVTVSA
VL: DVLMTQTPLSLPVSLGDQASLSCRSSQNIVHINGNTYLEWYLQKPGQSPKLLIYKVSNRFSGVPDRFSGSGSGTDFTLKISRVEAEDLGVYYCFQGSHVPWTFGGGTKVEIK
As for B4, the fold-decrease in affinity with S247A was determined as 1.1; with T250A, 1.2; with T238A, 1.3; in the experiment with S291A it was 1.1; in the experiment with P296A it was 0.6; with D249A, 1. The fold-decrease in affinity with H290A is 0.8.

For the origin of these results see patent publication US20200055939A1 (Genentech, published 2020).
